Source: patent publication US20210379147A1, “METHOD AND SYSTEM FOR TREATING CANCER UTILIZING TINAGL1” (The Trustees of Princeton University, priority 2018, published 2021)

How the values were obtained:
[1] = target: T1, EGFR extracellular domain recombinant protein (Homo sapiens, UniProt P00533); experiment: IP between recombinant Tinagl1 and recombinant His-tagged EGFR protein; assay type: binding; settings: 5 μg each protein in PBS, IP with His antibody
T1 construct: EGFR extracellular domain recombinant protein was purchased from Novoprotein (CI61); purchased Novoprotein CI61
Procedure: FIG. 13B is an image of a WB assay where 5 μg each of recombinant His-tagged EGFR protein and recombinant Tinagl1 protein were added into 1.5 ml of PBS. 100 μl of combined solution was transferred to a new tube and served as input, and the rest was split into two tubes and IP with 2 μg of IgG or His antibody respectively; the IP samples were washed with PBS and analyzed with WB.
Immunoprecipitation (IP) and western blotting (WB) analysis. For an IP experiment, cells were collected in 1.5 ml EP tube when they reached to 100% confluency in 10 or 15 cm dish as indicated. 1 ml of IP lysis buffer (20 mM Tris pH7.4, 0.15 M NaCl, 1 mM EDTA, 1 mM EGTA, 1% Tx-100) with complete protease inhibitor cocktail (Roche, 14493900) was added and put on ice for 20 min. Meanwhile, culture media was 100× concentrated and mixed with the cell lysates. The samples were centrifuged, 100 μl of the supernatant was transferred to a new tube as input, and the rest was incubated with 2 μg of IgG, anti-HA, anti-Myc, anti-Integrin subunit β1, anti-Integrin subunit α5 or anti-EGFR (as indicated in each experiment) overnight at 4° C. (recombinant proteins may be added at this step as indicated in each experiment). 30 μL of protein A/G agarose beads (Santa Cruz, sc-2003) was then added in each sample for another 2 hours at 4° C. the next day. […] The IP samples were washed with PBS and analyzed with WB. […]

[2] = Toxicity assessment in r-Tinagl1 treated mice (body weight, CBC, H&E and Alcian blue staining, ALT, AST); assay type: in vivo; settings: ALT and AST activity
From the text: To test if recombinant Tinagl1 protein (r-Tiangl1) treatment would slow tumor progression, full length recombinant human Tinagl1 with 6×His tag at the C-terminus (r-Tinagl1) was expressed in HEK293T cells and r-Tinagl1 was purified from the culture media using Ni^2+-NTA purification system. r-Tinagl1 was used to treat orthotopically implanted mammary tumors.

SUM159-M1a tumor cells = experiment: 3D in vitro tumor sphere growth assay; assay type: cell-based, human
Procedure: To directly test the tumor-specific inhibitory effects of Tinagl1, a 3D in vitro tumor sphere growth assay was performed. Tinagl1-overexpressing SUM159-M1a tumor cells formed significant fewer and smaller spheres.

LM2 cells = experiment: LM2 orthotopic tumors, single or combined agent treatment; assay type: in vivo, NSG female mice
Procedure: FIG. 17A is an image of WB analyses where NSG female mice were injected with 10^4 LM2 cells by MFP injection, and intravenously treated with the indicated reagents twice per week when tumors reached to 2 mm in dimeter, then after 5 weeks of the treatments, the primary tumors of each group were collected and activation of EGFR and FAK in primary tumor of each group were tested by WB.
FIG. 17B is a graph illustrating tumor volumes of each treatment group from FIG. 17A.
FIG. 17C is a graph, quantifying ex vivo BLI results where lungs in mice from FIG. 17A were collected and spontaneous metastasis was examined at the endpoint.
Two molecular targeting reagents, ATN-161 (ATN) and Erlotinib (Erlo) were employed. ATN is an integrin α5β1 antagonist that inhibits the integrin signaling pathway and slows tumor progression. Erlotinib is a well-established small molecular inhibitor of EGFR and is clinically approved for cancer treatment. Mice orthotopically implanted with LM2 cells were split into 6 groups after the tumors reached 2 mm in diameter and subjected to various single or combined agent treatments twice per week [(1) PBS; (2) ATN 30 μg/mouse; (3) Erlo 100 mg/kg; (4) r-Tinagl1 30 μg/mouse; (5) ATN and Erlo; and (6) ATN, Erlo, and r-Tinagl1]. Referring to FIG. 17A, the inhibition of integrin/FAK and EGFR upon each treatment was validated by western blotting and TIC staining.
For xenograft studies, 8-weeks immunocompromised NOD Scid Gamma (NSG) or immunocompetent FVB females were used. Cells were suspended in 10 μl of PBS for mammary gland injection (MFP), or were suspended in 100 μl of PBS for intravenous injection. For human patient-derived xenograft (PDX, HCL001, kindly provided by Dr. Alana Welm) study, we followed the standard protocol for PDX transplantation, maintenance and digestion of the tumors (DeRose et al., 2011). 2×10^4 cells were suspended in 10 μl of PBS and subjected to MFP injection. For recombinant Tinagl1 (r-Tinagl1), ATN-161, Erlotinib treatments, the mice were injected with 30 μg/mouse, 30 μg/mouse, and 100 mg/kg respectively twice per week via tail-vein. Primary tumors were quantified once per week via caliper measurement. All cell lines used for lung metastasis experiments were stably labeled with a firefly luciferase expressing vector and were monitored by weekly bioluminescent imaging (BLI). At protocol-defined endpoints, lungs were dissected and fixed in bouin's solution and the metastatic lesions were counted.

B1: r-Tinagl1: full length recombinant human Tinagl1 with 6×His tag at the C-terminus [SEQ ID NO.: 24], expressed in HEK293T cells (protein, listed as Homo sapiens)
chain: MWRCPLGLLLLLPLAGHLALGAQQGRGRRELAPGLHLRGIRDAGGRYCQEQDLCCRGRADDCALPYLGAICYCDLFCNRTVSDCCPDFWDFCLGVPPPFPPIQGCMHGGRIYPVLGTYWDNCNRCTCQENRQWQCDQEPCLVDPDMIKAINQGNYGWQAGNHSAFWGMTLDEGIRYRLGTIRPSSSVMNMHEIYTVLNPGEVLPTAFEASEKWPNLIHEPLDQGNCAGSWAFSTAAVASDRVSIHSLGHMTPVLSPQNLLSCDTHQQQGCRGGRLDGAWWFLRRRGVVSDHCYPFSGRERDEAGPAPPCMMHSRAMGRGKRQATAHCPNSYVNNNDIYQVTPVYRLGSNDKEIMKELMENGPVQALMEVHEDFFLYKGGIYSHTPVSLGRPERYRRHGTHSVKITGWGEETLPDGRTLKYWTAANSWGPAWGERGHFRIVRGVNECDIESFVLGVWGRVGMEDMGHHVDHHHHHH
modifications: C-terminal 6xHis tag
[1]
  direct interaction with EGFR: confirmed the direct interaction
[2]
  hematologic, GI tract, and liver toxicity: no significant hematologic, GI tract, and liver toxicity
[2]; listed as recombinant Tinagl1 protein
  hematologic, GI tract, and liver toxicity: without causing significant toxicity
SUM159-M1a tumor cells
  number and size of tumor spheres: reduced the number and size of tumor spheres
LM2 cells; LM2, twice per week, ATN 30 μg/mouse, Erlo 100 mg/kg, r-Tinagl1 30 μg/mouse
  primary tumor growth: significantly suppressed primary tumor growth
LM2 cells; LM2 tumors, ex vivo BLI at endpoint
  spontaneous lung metastasis: reduced spontaneous lung metastasis
